{"source": "paper PMC4357698", "key": {"[1]": {"molecular_target": "40S ribosomal subunit (UniProt P62841)", "test": "co-sedimentation"}, "[2]": {"molecular_target": "43S preinitiation complex reconstituted from purified components (UniProt P62841)", "test": "co-sedimentation"}}, "data": [{"substance": "human SRP9/14 protein dimer (from UniProt P49458 1-86; P37108 1-136) (complex)", "values": [{"measurement": "share of h9/14 comigrating with the subunit (fraction of h9/14)", "setting": "[1]", "value": 0.33}, {"measurement": "stoichiometry N (binding sites on 40S)", "setting": "[1]", "value": "> 1"}, {"measurement": "fold reduction of bound SRP9/14 against the scAluY^A RNP sample", "setting": "[2]", "value": 3, "unit": "fold"}, {"measurement": "percent of SRP9/14 comigrating with the complex", "setting": "[2]", "value": 15, "unit": "%"}]}]}
